The results in this text go back to patent publication US20240245805A1 (Orna Therapeutics, Inc., priority 2020, published 2024).

The subject of this data set is HEK293 cells. It counts as cell-based, human. Particulars: circular RNA encoding Gluc with the listed IRES (UTR truncated to 675 nt) transfected into HEK293 cells; supernatant after 24 hours.

B1: Simian Sapelovirus 1 (nucleic acid, listed as Sapelovirus sp.)
DNA: CCAAGGATCTGTTGCATAGGCGTTGTATCCCCTAACCTTTTACCTACCCATCCCAATAGGACTGGTATTTCGGTTTTGATTGAGTAATGGATACTGATTCTATACCTGTTACCCATTCAGGGGAAAAATGGAGTTTCTTTCATGGATCTGACTTGATATGACCAAGAGTCAACACTTTGCGTGTTGGCCGTATGGAATGCTTTAAGGTTTATTCTTTGGATTATGACTTCAGGGTTGGCCGCCCAGGATAAAAGGCAATTGTGGTAAGTGATGTTAGTCATTGGTGGTTGAAACCTGCCTAAGACGTCCTAGGTCTACGCTGTGCGGGCCGAAGTAAGCTTAGGAATAACAGGGAGTATGCCATTTTCTGCTTTCACCCAACACGACCGTACACGAAAGAGCTAGAGGCACTTTGGGGCAAAGGGAAAAGCTTTGCTTAGCCCGAATGTTCATTTGAGTCCTTGACGAATGCGTCCCGTCTGTCCCGACGGTGAGGCGTATGGCGCATGCTCATGGCATTACCCAATGGTGTATCTGTGAGGGGGGGGCTCCTCACACTTAGTCTAGTGCTACCTGACAGGGCCGCGGCTGGTCGTTTGTGTATGGTATAACCAGTAGTAATCCCCCATGGATTGCTTTAACTTCCCCTCCTCCCTTACCAAGACATTCTCTAAG
B1: the “Expression (luminescence from secreted Gluc protein)” value (“Expression” below) is listed as 6.55E+07.

B2: HRVA73 (nucleic acid, listed as Rhinovirus sp.)
chain: TTAAAACTGGGTTTGGGTTGTTCCCACCCAAACCACCCACGCGGTGTTGTACACTGTTATTCCGGTAACCTTGTACGCCAGTTTTATATCCCTTCCCCCCCTTGTAACTTAGAAGACATGCGAATCGACCAATAGCAGGCAATCAACCAGATTGTCACCGGTCAAGCACTTCTGTTTCCCCGGCTCTCGTTGATATGCTCCAACAGGGCAAAAACAATTGGAGTCGTTACCCGCAAGATGCCTACGCAAAACCTAGTAGCATCTTCGAAGATTTTTGGTTGGTCGCTCAGTTGCTACCCCAGCAATAGACCTGGCAGATGAGGCTAGAAATACCCCACTGGTGACAGTGTTCTAGCCTGCGTGGCTGCCTGCACACCCACACGGGTGTGAAGCCAAAGATTGGACAAGGTGTGAAGAGTCACGTGTGCTCATCTTGAGTCCTCCGGCCCCTGAATGCGGCTAACCTTAACCCCGTAGCCATTGCTCGCAATCCAGCGAGTATATGGTCGTAATGAGTAATTACGGGATGGGACCGACTACTTTGGGTGTCCGTGTTTCACTTTTTACTTATCAATTTGCTTATGGTGACAATATATATAGATATATATTGACACC
modifications: lipid formulation
As for B2, the “Expression” value amounted to 1.08E+08.

B3: HRVC3 QPM (nucleic acid, listed as Rhinovirus sp.)
chain: TTAAAGCTGGATCATGGTTGTTCCCACCATGATTACCCACGCGGTGCAGTGGTCTTGTATTACGGTACATTTCCATACCAGTTTTATACACCCCACCCCGAAACTCATAGAAGTTTGTACACAATGACCAATAGGTGGTGGCCATCCAGGTCGCTAATGGTCAAGCACTTCTGTTTCCCCGGCACCCTTGTATACGCTTCACCCGAGGCGAAAAATGAGGTTGTCGTTATCCGCAAAGTGCCTACGAAAAGCCTAGTAACACTTTGAAAACCCATGGTTGGTCGCTCAGCTGTTTACCCAACAGTAGACCTGGCAGATGAGGCTAGACATTCCCCACCAGCGATGGTGGTCTAGCCTGCGTGGCTGCCTGCACACCCTGCCGGGTGTGAAGCCAGAAAGTGGACAAGGTGTGAAGAGCCTATTGTGCTCACTTTGAGTCCTCCGGCCCCTGAATGTGGCTAACCCTAACCCCGTAGCTGTTGCATGTAACCCAACATGTATGCAGTCGTAATGGGCAACTATGGGATGGGACCAACTACTTTGGGTGTCCGTGTTTCCTGTTTTACTTTTTCATTGCTTATGGTGACAATTGTATCTGATACACTTGTTACC
modifications: lipid formulation
With B3, the “Expression” value was 1.64E+07.

B4: Felipivirus 127F (nucleic acid, listed as Felipivirus sp.)
chain: GATGTCGGATGACGGCTGGCCACCGGGGAAAAACGGCAAATGTGCACCACCTCTGCAACCCACGCCGACCACGTTTAACCATGGCGTTAGTAGGAGTGGACCACTGCAGTGGGCTCTGGTGTGCGACAGTCAGTGGTAGAGTAGACAGTCCTGACTGGGCAATGGGACCGCGTTGCGTATCCCTAGGTGGCATCGAGATTCCTCTGCTACCCACCAGCGTGGACTCCTATGGGGGGGGCCCCATAGGCTAGGTCTATACTGCCTGATAGGGTCGCGGCTGGTCGACCACTGACTGTATAACCAGTTGTAACTCACT
Take B4: the “Expression” value worked out at 8.92E+06.

B5: Parechovirus C (nucleic acid)
DNA: CGGTCATCCCCCTTTCCCCACAGCCGGTGTGGGTTCTAATCGGCTCCTACTAAACACCTAAGCATCACTGCGCCTCTATCTCTCCTATCCACAGGTCTAAGACGCTTGGAATAAGACATGTGGGTGCAATAGGAAGATTAGCTAGTCCAATCTCTCCTTCCAGCTACGCTTCTCCCTTCGATGAGCGTAGGGGGGGCCCCCACCTCCCTCATCTCTGGATAGGGCTCTTGCTACGGGGCTTTCCCGTCTGGACCAGCAGGCCCACTGGTGCGCTTCCATTCAAGTTTAGTGTGCATTACTGTCTGAAATATTGCTTTGCTAGGATCTAGTGTAGCGACCTGCATATTGCCAGCGGACTTCCCCACATGGTAACATGTGCCTCTGGGCCCAAAAGGCATGTCTTTGACCGTATGCAGTACAACCCCAGTATAGGTCCTTTCTATGGCAGTATGGATCTCAGTGATGAGTCTATACAGAATATGGAAGTGGTTCGGATATGTCAGCCCGAAGGATGCCCAGAAGGTACCCGCAGATAACCTTAAGAGACTGTGGATCTGATCTGGGGCCCACCACCTTCGGGTGGGTAGAAGCTAACCATGCCTTGGGTTAAAAAACGTCTAAGGGCTGACCAGACCCGGGGGATCCGGGTTTTCCCTATCTTGACCTACTCTAATC
modifications: lipid formulation; Parechovirus C
For the molecule B5, the “Expression” value came out at 1.24E+06.

B6: Rabovirus A NYC-B10 (nucleic acid)
DNA: CCGACCCCACTGGTCGAAGGCCACTTGGCAATAAGACTGGTGGAACAAGGTCGCCTGTAGTTGATTGGAACCTTCTTTCTAATGACTTATGTCAGCGGTGCTACTCACACCGTAACTCTCCTACCCTATCCCCACGCTTGTGGAACTAGGAGGGGATGAGTGATTCAAGTAAGTACTGTCAGAATGGTGAAAATAATCTGATTCTGAAACGCTATGGATCCATCGAAAGATGGGGCTACACGCCTGCGGAACAACACATGGTAACATGTGCCCCAGGGGCCGAAAGCCACGGTGATAGGATCACCCGTGTAGTTTGAGATCATATCAATGTTCATAGTCTAGTAAGATGATTTGAAATCTAACTGGTCTGATGGCTAACTGCTTGTCTTATTGCGGCCTAAGGATGTCCTGCAGGTACCTTTAGAGAACCTTAAGAGACTATTGATCTGAGCAGGAGCCAAGGTGGTCTTTCCCAGCCTTGGTTAAAAAGCGTCTAAGCCGCGGCAGGGGGCGGGAGGCCCCCTTTCCTCCCAAACTATAATATAGATTGT
modifications: lipid formulation; Rabovirus A
For the molecule B6, the “Expression” value was 1.24E+06.

B7: Simian Sapelovirus 2 (nucleic acid, listed as Sapelovirus sp.)
DNA: TTTTAACTTGTTATGACATTCAAGGAAAAAATGTCTTTTTCATTATGGGACTGACCTGTTTATGAACATGAGCAGCGGCACTGCTCCACGGGCTATCCGTGTAAGAAATATTGATTATTCTTATGGATCATGATTTCAGGGTTGGCCGCCCAGTCTAAAAGGCAATTGTGGTAAGCTATGTAAGTAGTTGGCTGTTGAAAGGAGCCAAGTACATCCTAGGTCTACGCTGTGCGGGCCGAAGTAAGACTTGGAACAACTCTGAGTAGGCAGTTTTTCTCTTTAGCCCAACACGACCGCATACTGAAGAGCTAGAGGCACTTTGGGGCAAAGGTAAAAGCATTGCTTAGACCGAATGTTCAATGAGACCTTGACGAGTGCTGTCACAGTGTCCCCTGATGGCAGTATGGCGCATGCTCTTGGCATTACCCATATGTGTATCTATAGGGGGGGGGCCCCCTATACTTAGTCTAGTGCTACCTGACAGGGCCGCGGCTGGTCGTCGGTGTGTGGTATAACCAGTAGTAATCCCCCATGGATTGCTTTAACTCCCCCTCCTCCCTCAACAAAACTTTCTCTAAG
B7: the “Expression” value is on record as 4.24E+07.

B8: Parabovirus C (nucleic acid)
DNA: GATGTATCCCCATCCCCCAGTGTGTATGCCATACTGCATAGCTCGCCTATGCCCTATGGATTCACAACCCTTTCATATACCCTCCCTACCCAACCCCGTAACCACATGCTTTACTCCGCTTGGGGTTTTGCGGCCCCATGTTGTGACGAAATGGCTACGCAATCAATGCGGCTAATGGGGCCTGCCGCTTTTAAGTGGCCCCAGTTAGAAGTTTATGCACACCCGCCCATTAGGAGGCCACCAGCCAGGTGGTCAGAGGGCAAGCACTTCTGTTTCCCCGGTGAAGTTTGATAAGCTGTGCCCACGGCTGAAGCAGACAGATCCGTTACCCGCCTCACTACTACGAGACGGCTAGTAGTGTGTAATATCCGAATTTCATTGATCCGGGTGTTCCCCCCACCCAGAAACGTGTGATGAGGAGCGGCACCCCTCCTATGGCAACATAGGGCCTCTCCTGCGCTGGCACACGGGCTCTATGAGCATGAAATCAGGAGAAAGTCACACGAAGACCTTATTGTGCTAGTGTTGATTCCTCCGCCCCCCTGAATGCGGCTAATCCCAACTCCGGAGCGCCCGCTGGCAAACCCGCCAGAAGAGCGTCGTAATGCGTAAGTCTGGAGCGGAACCGACTACTTTGGGTGTGGCGTGTTTCCTTTATTTCCTTTGTATTTGTAT
modifications: lipid formulation; Parabovirus C
As for B8, the “Expression” value came to 1.83E+07.

B9: HRVB27 (nucleic acid, listed as Rhinovirus sp.)
chain: TTAAAACAGCGGATGGGTATCCCACCATCCGACCCACAGGGTGTAGTGCTCTGGTATTTTGTACCTTTGCACGCCTGTTTCCCCATTGTACCCCTCCTTAAATTTCCTCCCCAAGTAACGTTAGAAGTTTAAGGAAACAAATGTACAATAGGAAGCATCACATCCAGTGGTGTTATGTACAAGCACTTCTGTTTCCCCGGAGCGAGGTATAAGTGGTACCCACCGCCGAAAGCCTTTAACCGTTATCCGCCAATCAACTACGTAATGGCTAGTATTACCATGTTTGTGACTTGGTGTTCGATCAGGTGGTTCCCCCCACTAGTTTGGTCGATGAGGCTAGGAACTCCCCACGGGTGACCGTGTCCTAGCCTGCGTGGCGGCCAACCCAGCTTTTGCTGGGACGCCTTTTTACAGACATGGTGTGAAGACCTGCATGTGCTTGATTGTGAGTCCTCCGGCCCCTGAATGCGGCTAACCTTAACCCCGGAGCCTTGCAACATAATCCAATGTTGTTGAGGTCGTAATGAGTAATTCTGGGATGGGACCGACTACTTTGGGTGTCCGTGTTTCCTTTTATTCTTTATATTGTCTTATGGTCACAGCATATATAGCATATATACTGTGATC
modifications: lipid formulation
As for B9, the “Expression” value was 2.04E+08.
